Measurements taken from a protein production outcome set (Wang et al. 2014).

Test: label from the status in PepcDB records

Sequence | protein production
MSVWRRRAEGREPTQAQRLFRGLVREWLWVSLILLPLTAVLSLSHGLALNNLFYDNLRRFTPLPVDPRILLVTIDDYSLQQLGRWPWPRAIHGQLLDRLSAAEAKGVLFDVILSEPGSTVENDTRLAAALCRAGNVFLPVLRQGVARYGQDIEEIPPVPLLRNCARGLGHINAEADADGTVRSVYLREGPMLAPRAQLTWLLYQLTEAEPAFPHMPGPGEPRVAQGWLRSNPVRIPFISADAGFPSVPYVSVLRGEVPPELLRDRLILVGSTAPGLGDRYVTPQSGSQGTTPGVEIQANLLNGLLQHRSVVALGQWSGMLLSMALTAVLLGLLLWRPRHALWITLGCMGLGLAGSVLMLRLGYWWSPVASLLGMLLAYLIWNWRRLSVILAYFGWELARLDSEPKVLPERRRSQAPAGDVLQGQIVALEQALSRTRDTRRFIADGLEYLPVATLISDPDGKILLANRNAREVFAHSLVGEGLIAQLAALGYPGLTEPALYPRLEQLPAVEFRDVQQRSLRMELAPLLPVDSDTAIGWLLSLTDLSVERDAEQQRSVLLRFLSHDLRAPHSAILALLDVQRHQPATPRQVYGQIEQQVRRALALTEAFVQLAKAESEAYQFEPSMFAMLVLDAFDQATTLAQLKDIHLEHDLDDEAEGLVLADQSLLTRALFNLLENAIKYSPVESRVSVRVSCTPGWLRCEISDEGRGIDAADLPQLFGQYQRFASAKGIDGLGLGLSMVKAVVDRHQGRISCQSVVGRGSCFILELPLLEE | failed
MSYEDWAGGIRCSECGREYTGIECPICRQADPTEREVVTEHGNGRGDQQPPENGTVSADSGVYDIDKIEHERHTDAEKVNPEVVDPSDYVTRAVSGVVFNKRHAWKAENRADEDNPPSLFVVTTADSEFNWIEIPLWDDAEGAMEDISIGDPIQAEGKLSKDNGVHNIHVHSQDSIDILTEPPEVKFDSMAIDQITSTTPKVDLEGTVERVGEIKDIQLDDEKVKLREIHVSDLNNDQIQVALWRTNAYEKVAPGDEIIIAGGLAKPHNEKVVVRVGWSGHIGYRSSLEHHHHHH | failed
MSYERPLLAPLRAALSRPTPVVHVLIGPRQVGKTTITRQIQESIGISSIYATADSLVPLDSAWIETQWRRAVAEEAASGGPEIRVLILGSSALLMQQGLTESLAGRFFLHRCTHWGYPALEHHHHHH | failed
MSYMGKKKKDCLFHVDGFEEWMDQFCSDSCSNFSFPNQIHIDLCETEQEYILETDVPNVTEQNVVIKKMETGLNICILHKNISLQRNIPLPTTIIYKKMLACLENGFLAIHISKNEVANKHEEKVLFQIEN | failed
MSYNLNLSHNIYKDAKLGTYYFRITYYDKSNTRKYITRKGFKQRKDAVKKCNEMMDELEGVGHLNRLPFDKLVEEYIDWYSARRKTSSVKALKTHTNNHLLPYFKSMDVFKMTTQDVMKFQNKKLKEGHSGDYLKKMHVYLVSLLNHAMKFHELKQNVASLVGNFEIESQKRLNYWTLEQFNQFYEALATQQQKLFFKLLFYSGARKGEIRALTWRDINFDDDFIHINKTDYHGEVTAPKTKSAIRDIYLPTHMMYDIKDYLIWYKENNIYKDDYVLFGTFYKAYSESTIDRWFTNALKVLDEQLPNGQNFPRIVIHELRHSHASMLVNLGASVMIIAQRLGHSDTTEVYNRYGHLYPSTQKEIVKYL | failed
MSYSNILVAVAVTPESQQLLAKAVSIARPVKGHISLITLASDPEMYNQLAAPMLEDLRNVMQEETQSFLDKLIQDAGYPVDKTFIAYGELSEHILEVCRKHHFDLVICGNHNHSFFSRASCSAKRVITSSEVDVLLVPLTGD | failed
MSYVDISYYKDNFKGDILNDDTLENRLERASDQIDKLTYNRIIGVEFKNLSPFQQDKIKKAVCLQAEFIEQYGEFINMPLSGFSAGSTSVSFNGSIVNGITTTQEVINYIYQTGLNSRRILEHHHHHH | failed
MSYVPPHKRLENVALRASSVPPSLLKKHNKNVGSTNTKIIYANGYISRWFLVGSDPEDSNFQLVPGSSEWRKDAEEKSLVILAKSDLGKLENPWLWVTEKVEDDIIMGFDRAKKTLLGYGGSEDVKLRLIARFGTLRDGPLTKSTLEKLKKMFRTNVPKSYVENVGYRAVHKMGFCVEETKELYHVKVSDNTRPDVTISCKCMAELNALRHLNLDVSCLDQDLDMRLMVDSKRTLTNLSENEITNLKELTDSAVVDPTVKGGLKWPLGKSSCADRYIVCGVWHTVTTTYINQTMRLQIREADRYDFRTGVGGTSSEVNFKLKALSTILLKEEDVERKCVSDMLKDCLKAVWEYFLKEV | failed
MTAAEPYTVELAADVHAYVQPDGGWCLNNAGFVSDGTTTLLVDTAATERRTRALSAAIAAAGVPAPRFVVNTHHHGDHTYGNSHFAPTATIVSHAECRRETLANGRQLHLLWPENDFGDIRIQAADLTYTGHTTVHVGAVDAEVIHPGVAHTVSDSVVWLPHRRVLFTGDLVFEGGTPFILMGSLSGSLRALDVLRQLGAETVVPGHGPVTDPSAFDRTERYLRFVADIAHKSHAAGRTPLEAARETDLGEFAALPESERFVANLHRAYAELDGAPEGAPLDVPAAVRDIAAMNGGRMVACHA | failed
MTAAQDGRIITFYSYKGGTGRTMALANTAWILAANGKRVLAVDWDLEAPGLDRFFRPFLDPHALAATSGIIDIINEYAWAATSGSQRSGAWHQEYAHVEQHAVSLTPERHGLRFAKGGSLDFLSAGRQDRSYSATVSSFEWDNFYERLGGGLFLDALRDDMKASYEYVLIDSRTGLSDNADICTIQMPDMLVDCFTLSDQSLDGAAAVARSVEDGYRKRKIRVLPVPMRIDEGEKEKVDAGRALARLKFDGLPKGLGGEDLSPEELSQYWGAVEIPYRPYYAYEETLATVGDESGIANSLLSAFERLTNVISDGEVASLPPVPEPVRLRCLDAFTRRRPLTTAADVVVAYAAENRMWADWIEAVLKHSGCNVTLYDVSAGPVERPDAATRALVLLSNAFQKSRYGEDVWRAFTGGDPDGAHPALVPLRVDEVRLPDSYLAHEPVDLHRLEEAQCVAGLLSALELPAQPTDGAPAAPRFPGSTPATWNAPQRNQTFTGRNVILTQVREQLRSGMSVVLPQPQALTGLGGVGKTQVALEYVHRFMADYDLVWWTSAESVDNVVASLAELGARIGAPGGEDMALVSRETVQMLARGVPTKRWILIFDNADNPEQLTRYFPAGGGGHILVTSRNQAWATQGQSLPVDVFLRQESIEHLSRRAPGLTAHEADRVATAVGDLPLAVEQAAAWLAETATPIEDYLRQLAEQTTDVLDLNQPADYPETVAATWNISIARLKDRSPASVRLLQLCAFLAPEPISSHLLYSKEMIDELRKVDPTLQESLLLGRVIREIARFALAKVDQVSNSIQVHRLVQAVIRSQLTQEEQRHARHVVHTVLAGARPDGDEPIDDPETWPRFGVIWPHLSASDVRNCTENEPRRLLIDRVRYLWKRGDFPAAQQLAEDLLGHWKPLLGEEDVQYLYLRCQLANVMRSQGRYVESRAINTELLEQQRRVLGAAHPHTYVTMSSLASDLAALGEYTLAVELAREAHDGFSQIFHESHRRTLSAANNLALALRMVGRYGDARSLDQDTYDRRMEVLGPDHPYTLASAGRLGRDLREVGRYEDSVSLLSRAYDAHKRILGKGFPGTLSCAKSLAVSLRRTGRLEDARRLTTATRAQYRTQYDAHTPDSLACDLNMAADLYAADEREAAREVAKEALTEYMKVPGEEHPYTQAALNNLGIFHWGCGDAVEAEAVFRQVLPRMSDVLGDRHPHTLFTEANFANVLADQGRLEEAWALEKRAMDTLRTVLGPQHPETLAVVSNCALTLGALGRTDEARRLREETLAELNRQGRQLGENNGIIQLTGHERRIYRDLEPLAV | failed
MTAAQFAALSPLVVLAIAAVAAMMLVPLARLQIVQASAAAGLAIAAALVLLRIGAPAAPMGALFTDDGPARFGIVFACLVSLGALVFLRTGHPAKEAPSLLVLVAIGAATLAGAGHAATLFLGIEILSLSLIALFAFRLTRQGLEAAYKFLVMSGLASSALLLGIALIFAETGALDFAGWGGRGALTAFGTALLLAGLAFKFSLVPFHMWTPDAFEAAPASAATLAGVVSKSAVAIVILRLALTAHLPEPVWSQGLAALGGASVLIGNLLALRQPQLPRMLGYSTIAHSGYIALIIASGTPHAGEAVLFYLAIYAPAMLGALCVSAALGRAPTLPDLHGLMKRRPLEAIALSLSLLSLAGLPAAGGFIAKLFLLRVLIDGSLWVLVGIVVAGSSLGFFYYAKFFTAPFVGHTHDESEPLPQLDRGLLIVCIALIVIFGVAPAGLMNVVAATMAP | failed
